Experimental data published in US20250186614A1, “COMPACT DRUG RESPONSIVE DOMAINS FOR REGULATION OF FUNCTION/ABUNDANCE AND DELIVERY OF POLYPEPTIDE PAYLOADS” (OBSIDIAN THERAPEUTICS, INC., priority 2022, published 2025).
Residue numbers refer to the chain shown, from its start. Names may count otherwise.

B1: FKBP-129: FKBP13 DRD Q72R, Q84E, A117W, E98L; SEQ ID NO: 79 (protein)
chain: HCPIKSRKGDVLHMHYTGKLEDGTEFDSSLPRNQPFVFSLGTGEVIKGWDQGLLGMCLGEKRKLVIPSELGYGERGWPPKIPGGATLVFEVELLKIER
modifications: Description of sequence: FKBP13-AcGFP-mCherry Fusion; Construct Name: FKBP-129; FKBP13 DRD in Construct : FKBP13 (mutated to match FKBP12 active site Q72R Q84E A117W) (DRD E98L)
B2: FKBP-130: FKBP13 DRD Q72R, Q84E, A117W, P107K; SEQ ID NO: 80 (protein)
chain: B1 chain with L58E, P67K
modifications: Description of sequence: FKBP13-AcGFP-mCherry Fusion; Construct Name: FKBP-130; FKBP13 DRD in Construct : FKBP13 (mutated to match FKBP12 active site Q72R Q84E A117W) (DRD P107K)
B3: FKBP-131: FKBP13 DRD Q72R, Q84E, A117W, T126C; SEQ ID NO: 81 (protein)
chain: B1 chain with L58E, T86C
modifications: Description of sequence: FKBP13-AcGFP-mCherry Fusion; Construct Name: FKBP-131; FKBP13 DRD in Construct : FKBP13 (mutated to match FKBP12 active site Q72R Q84E A117W) (DRD T126C)
B4: FKBP-132: FKBP13 DRD Q72R, Q84E, A117W, G92Y; SEQ ID NO: 82 (protein)
chain: B1 chain with G52Y, L58E
modifications: Description of sequence: FKBP13-AcGFP-mCherry Fusion; Construct Name: FKBP-132; FKBP13 DRD in Construct : FKBP13 (mutated to match FKBP12 active site Q72R Q84E A117W) (DRD G92Y)
B5: FKBP-133: FKBP13 DRD Q72R, Q84E, A117W, G83T; SEQ ID NO: 83 (protein)
chain: B1 chain with G43T, L58E
modifications: Description of sequence: FKBP13-AcGFP-mCherry Fusion; Construct Name: FKBP-133; FKBP13 DRD in Construct : FKBP13 (mutated to match FKBP12 active site Q72R Q84E A117W) (DRD G83T)
B6: FKBP-134: FKBP13 DRD Q72R, Q84E, A117W, H41R; SEQ ID NO: 84 (protein)
chain: B1 chain with H1R, L58E
modifications: Description of sequence: FKBP13-AcGFP-mCherry Fusion; Construct Name: FKBP-134; FKBP13 DRD in Construct : FKBP13 (mutated to match FKBP12 active site Q72R Q84E A117W) (DRD H41R)
B7: FKBP-135: FKBP13 DRD Q72R, Q84E, A117W, E61Y; SEQ ID NO: 85 (protein)
chain: B1 chain with E21Y, L58E
modifications: Description of sequence: FKBP13-AcGFP-mCherry Fusion; Construct Name: FKBP-135; FKBP13 DRD in Construct : FKBP13 (mutated to match FKBP12 active site Q72R Q84E A117W) (DRD E61Y)
B8: FKBP-136: FKBP13 DRD Q72R, Q84E, A117W, S108M; SEQ ID NO: 86 (protein)
chain: B1 chain with L58E, S68M
modifications: Description of sequence: FKBP13-AcGFP-mCherry Fusion; Construct Name: FKBP-136; FKBP13 DRD in Construct : FKBP13 (mutated to match FKBP12 active site Q72R Q84E A117W) (DRD S108M)
B9: FKBP-137: FKBP13 DRD Q72R, Q84E, A117W, P75L; SEQ ID NO: 87 (protein)
chain: B1 chain with P35L, L58E
modifications: Description of sequence: FKBP13-AcGFP-mCherry Fusion; Construct Name: FKBP-137; FKBP13 DRD in Construct : FKBP13 (mutated to match FKBP12 active site Q72R Q84E A117W) (DRD P75L)
B10: FKBP-138: FKBP13 DRD Q72R, Q84E, A117W, G124R; SEQ ID NO: 88 (protein)
chain: B1 chain with L58E, G84R
modifications: Description of sequence: FKBP13-AcGFP-mCherry Fusion; Construct Name: FKBP-138; FKBP13 DRD in Construct : FKBP13 (mutated to match FKBP12 active site Q72R Q84E A117W) (DRD G124R)
B11: FKBP-139: FKBP13 DRD Q72R, Q84E, A117W, E130R; SEQ ID NO: 89 (protein)
chain: B1 chain with L58E, E90R
modifications: Description of sequence: FKBP13-AcGFP-mCherry Fusion; Construct Name: FKBP-139; FKBP13 DRD in Construct : FKBP13 (mutated to match FKBP12 active site Q72R Q84E A117W) (DRD E130R)
B12: FKBP-140: FKBP13 DRD Q72R, Q84E, A117W, K135Y; SEQ ID NO: 90 (protein)
chain: B1 chain with L58E, K95Y
modifications: Description of sequence: FKBP13-AcGFP-mCherry Fusion; Construct Name: FKBP-140; FKBP13 DRD in Construct : FKBP13 (mutated to match FKBP12 active site Q72R Q84E A117W) (DRD K135Y)
B13: FKBP-141: FKBP13 DRD Q72R, Q84E, A117R, L52R; SEQ ID NO: 91 (protein)
chain: B1 chain with L12R, L58E, W77R
modifications: Description of sequence: FKBP13-AcGFP-mCherry Fusion; Construct Name: FKBP-141; FKBP13 DRD in Construct : FKBP13 (mutated to match FKBP12 active site Q72R Q84E A117R (DRD L52R))
B14: FKBP-142: FKBP13 DRD Q72R, Q84E, A117W, T64G; SEQ ID NO: 92 (protein)
chain: B1 chain with T24G, L58E
modifications: Description of sequence: FKBP13-AcGFP-mCherry Fusion; Construct Name: FKBP-142; FKBP13 DRD in Construct : FKBP13 (mutated to match FKBP12 active site Q72R Q84E A117W) (DRD T64G)
B15: FKBP-143: FKBP13 DRD Q72R, Q84G, A117H, P43R; SEQ ID NO: 93 (protein)
chain: B1 chain with P3R, E44G, L58E, W77H
modifications: Description of sequence: FKBP13-AcGFP-mCherry Fusion; Construct Name: FKBP-143; FKBP13 DRD in Construct : FKBP13 (mutated to match FKBP12 active site Q72R Q84G A117H) (DRD P43R)
B16: FKBP-144: FKBP13 DRD Q72R, Q84E, A117H, D50R, E98M; SEQ ID NO: 94 (protein)
chain: B1 chain with D10R, L58M, W77H
modifications: Description of sequence: FKBP13-AcGFP-mCherry Fusion; Construct Name: FKBP-144; FKBP13 DRD in Construct : FKBP13 (mutated to match FKBP12 active site Q72R Q84E A117H) (DRD D50R E98M)
B17: FKBP-145: FKBP13 DRD Q72R, Q84E, A117H, H41S, E61D; SEQ ID NO: 95 (protein)
chain: B1 chain with H1S, E21D, L58E, W77H
modifications: Description of sequence: FKBP13-AcGFP-mCherry Fusion; Construct Name: FKBP-145; FKBP13 DRD in Construct : FKBP13 (mutated to match FKBP12 active site Q72R Q84E A117H) (DRD H41S E61D)

system: Jurkat cells; assay: Tacrolimus dose response of FKBP13-AcGFP-mCherry constructs stably transduced into Jurkat cells, GFP MFI by flow cytometry; assay type: cell-based; conditions: tacrolimus, Jurkat cells stably transduced; Table 6
Experimental: The regulation of AcGFP, from FKBP13-AcGFP-mCherry constructs, in Jurkat cells, was also studied. Jurkat Clone E6-1 cells were cultured in standard media (RPMI+GlutaMAX Supplement (Life Technologies, Carlsbad, CA Cat #61870127), Fetal Bovine Serum (FBS) (Life Technologies Cat #10-082-147)). Jurkat cells were transduced with lentivirus produced with each of FKBP-039, FKBP-040, FKBP-041, FKBP-042, FKBP-043, FKBP-044, or FKBP-045 constructs. Jurkat cells were transduced until they were 10-25% positive, as determined on day 5 post-transduction, by using mCherry as a transduction marker. […] The Geometric Mean Fluorescent Intensity (MFI) of GFP expression in mCherry+ cells was plotted and dose response curve fits were performed using Prism Software (San Diego, CA).
FKBP-091 was used as a comparative construct.
FIGS. 22-38 show the results of characterization of FKBP-160-292. […] FKBP-091 and FKBP-117 was used as a comparative control for FKBP-160-FKBP-255. FKBP-195 was used as a comparative control for FKBP-256-FKBP-275. FKBP-117, FPBP-195 and FKBP-251 were used as a comparative control for FKBP-276-FKBP-292.
FKBP mutants were cloned in a manner to make a fusion protein with AcGFP in order to assess FKBP mutant regulation by using AcGFP expression as a readout. […] Further iterative FKBP mutants (FKBP-256-FKBP-292) were constructed from these initial combinatorial mutants to see if we could further improve FKBP DRD properties.

In order of falling “Fold Change” value:
1. B11  52.24
2. B9  45.79
3. B14  33.42
4. B12  28.70
5. B7  25.52
6. B8  22.46
7. B3  21.30
8. B5  19.11
9. B1  17.11
10. B4  16.27
11. B6  15.64
12. B15  14.97
13. B2  14.40
14. B17  11.05
15. B10  10.43
16. B16  1.24
17. B13  1.00
